Where no end group is shown, it is not given here. TMR‑5‑maleimide = tetramethylrhodamine-5-maleimide
B1: TMR-β-annulus-EE peptide (peptide)
peptide: C(TMR‑5‑maleimide)INHVGGTGGAIMAPVAVTRQLVGSEE
notes: Cys added at the N-terminus to carry the TMR dye; 24-residue β-annulus peptide involved in the formation of the dodecahedral internal skeleton of tomato bushy stunt virus (capsid protein); two anionic amino acids (Glu) added at the C-terminal side by design; also called Cys-β-annulus-EE peptide modified with TMR-maleimide; source: synthetic peptide (Fmoc solid-phase method; Michael addition of …)
B2: β-annulus-EE peptide (peptide)
peptide: INHVGGTGGAIMAPVAVTRQLVGSEE
notes: 24-residue β-annulus peptide involved in the formation of the dodecahedral internal skeleton of tomato bushy stunt virus (capsid protein); two anionic amino acids (Glu) added at the C-terminal side by design; Self-assembles into the anionic artificial viral capsid; also called 26-residue β-annulus-EE peptide; source: synthetic peptide (Fmoc solid-phase method, purified by reverse-phase HPLC)

Tests used:
[1] = molecular target: B2; test: dynamic light scattering; 90 μM β-annulus-EE peptide and 10 μM TMR-β-annulus-EE peptide co-assembled (molar ratio 9:1) in 10 mM phosphate buffer (pH 7.0) containing 1% DMSO, 25 °C; details: both partners purified
[2] = molecular target: the molecule itself; test: as above

| Binder | binding result [1] | binding result [2] |
| --- | --- | --- |
| B1 | binds |  |
| B2 |  | binds |

— paper PMC10651892, “A supramolecular system mimicking the infection process of an enveloped virus through membrane fusion” (Scientific Reports, 2023)
